In article PMC5727443 one finds PHD2 bound to HIF-2α with Tet1 co-expressed, fold of without Tet1 and pVHL bound to HIF-2α with Tet1 over-expressed, fold of without Tet1 data, which are given here for one substance.

The target of the assay is hypoxia-inducible factor 2α (HIF-2α), wild type (UniProt Q99814). In words: co-IP.
Sequence of UniProt Q99814 (Q99814 whole entry): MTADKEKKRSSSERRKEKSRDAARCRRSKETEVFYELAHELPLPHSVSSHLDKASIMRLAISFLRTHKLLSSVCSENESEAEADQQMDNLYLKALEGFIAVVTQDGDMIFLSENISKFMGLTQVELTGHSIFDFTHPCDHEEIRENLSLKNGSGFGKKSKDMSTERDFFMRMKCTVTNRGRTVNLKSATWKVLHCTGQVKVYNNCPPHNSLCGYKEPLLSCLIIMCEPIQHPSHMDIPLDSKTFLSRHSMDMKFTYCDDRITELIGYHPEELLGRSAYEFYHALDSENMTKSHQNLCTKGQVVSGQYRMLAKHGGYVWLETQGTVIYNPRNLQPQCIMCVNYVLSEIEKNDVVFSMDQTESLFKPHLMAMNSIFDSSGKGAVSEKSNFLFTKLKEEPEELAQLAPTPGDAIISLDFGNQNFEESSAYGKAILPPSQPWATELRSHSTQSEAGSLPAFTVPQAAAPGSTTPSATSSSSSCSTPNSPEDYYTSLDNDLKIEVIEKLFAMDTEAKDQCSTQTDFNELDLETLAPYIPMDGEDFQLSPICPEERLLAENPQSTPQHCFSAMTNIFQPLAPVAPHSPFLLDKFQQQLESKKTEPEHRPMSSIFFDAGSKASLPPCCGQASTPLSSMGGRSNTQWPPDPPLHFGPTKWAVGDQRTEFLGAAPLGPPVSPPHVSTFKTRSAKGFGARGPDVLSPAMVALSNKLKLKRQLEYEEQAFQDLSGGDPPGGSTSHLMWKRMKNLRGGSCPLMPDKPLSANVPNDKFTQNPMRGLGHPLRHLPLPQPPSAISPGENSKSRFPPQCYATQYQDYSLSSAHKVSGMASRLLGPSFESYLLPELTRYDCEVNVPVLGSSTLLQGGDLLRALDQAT

As to mouse Tet1 (wild type, whole) (enzyme), the PHD2 bound to HIF-2α with Tet1 co-expressed, fold of without Tet1 came to 0.47 fold and the pVHL bound to HIF-2α with Tet1 over-expressed, fold of without Tet1 was 0.7 fold.
